Results: US20190218277A1 (Chugai, published 2019)

Tests used:
[1] = biological target: T1, Recombinant soluble E protein (0.8E-His) from DENV-1 (DENV-1, UniProt P27909 281-675)
T1 construct: also called DENV-1 E protein; DV1

[2] = biological target: T2, Recombinant soluble E protein (0.8E-His) from DENV-2 (DENV-2, UniProt P14340 281-675); experiment: SPR, Biacore T200
T2 construct: also called DENV-2 E protein; DV2

[3] = biological target: T3, Recombinant soluble E protein (0.8E-His) from DENV-4 (DENV-4, UniProt P09866 280-674); experiment: SPR, Biacore T200
T3 construct: also called DENV-4 E protein; DV4

[4] = biological target: T4, Recombinant soluble E protein (0.8E-His) from DENV-3 (DENV-3, UniProt P27915 281-673)
T4 construct: also called DENV-3 E protein; DV3

Row | Binder | Kd [1] | binding result [2] | binding result [3] | Kd [4]
1 | DG_3CH989-SG182/3CL633-SK1 (antibody, V domains shown) VH: QVQLVQSGAEVKKPGASVKVSCKASGYTFTSNYIHWVRQAPGQGLEWMGVINPRGGSRRSAQKFQGRVTMTRDTSTSTVYMELSSLRSEDTAVYYCARGGRALFYDSYTTPFDGGSWWFDPWGQGSLVTVSS VL: DIQLTQSPSSLSASVGDRVTITCQASQDIRKYLNWYQQKPGKAPKLLIYDASNLKTGVPSRFSGSGSGTDFTLTISSLQPEDVATYYCQQFDDLPITFGQGTRLQIKR | 1.54 nM | binds | binds | 0.00237 nM
2 | DG_3CH992-SG182/3CL119-SK1 (antibody, V domains shown) VH: QVQLVQSGAEVKKPGASVKVSCKASGYTFTSYYIHWVRQAPGQGLEWMGVINPRGGSRRSAQKFQGRVTMTRDTSTSTVYMELSSLRSEDTAVYYCARGGRALFYDSYTTPFDGGSWWFDPWGQGSLVTVSS VL: DIQLTQSPSSLSASVGDRVTFTCQASQEIRKYLNWYQQKPGKAPKLLIYDASNLKTGVPSRFSGSGSGTDFTFTISSLQPEDVATYYCQQFDDLPITFGQGTRLQIKR | 1.87 nM | binds | binds | 0.000515 nM
3 | DG_3CH992-SG182/3CL633-SK1 (antibody, V domains shown) VH: QVQLVQSGAEVKKPGASVKVSCKASGYTFTSYYIHWVRQAPGQGLEWMGVINPRGGSRRSAQKFQGRVTMTRDTSTSTVYMELSSLRSEDTAVYYCARGGRALFYDSYTTPFDGGSWWFDPWGQGSLVTVSS VL: DIQLTQSPSSLSASVGDRVTITCQASQDIRKYLNWYQQKPGKAPKLLIYDASNLKTGVPSRFSGSGSGTDFTLTISSLQPEDVATYYCQQFDDLPITFGQGTRLQIKR | 1.27 nM | binds | binds | 0.00295 nM
4 | DG_3CH989-SG182/3CL668-SK1 (antibody, V domains shown) VH: QVQLVQSGAEVKKPGASVKVSCKASGYTFTSNYIHWVRQAPGQGLEWMGVINPRGGSRRSAQKFQGRVTMTRDTSTSTVYMELSSLRSEDTAVYYCARGGRALFYDSYTTPFDGGSWWFDPWGQGSLVTVSS VL: DIQLTQSPSSLSASVGDRVTITCQASQDIRKYLNWYQQKPGKAPKLLIYDASNLKTGVPSRFSGSGSGTDFTLTISSLQPEDVATYYCQQFEDLPITFGQGTRLQIKR | 1.5 nM | binds | binds | 0.00303 nM
5 | DG_3CH992-SG182/3CL-SK1 (antibody, V domains shown) VH: QVQLVQSGAEVKKPGASVKVSCKASGYTFTSYYIHWVRQAPGQGLEWMGVINPRGGSRRSAQKFQGRVTMTRDTSTSTVYMELSSLRSEDTAVYYCARGGRALFYDSYTTPFDGGSWWFDPWGQGSLVTVSS VL: DIQLTQSPSSLSASVGDRVTFTCQASQDIRKYLNWYQQKPGKAPKLLIYDASNLKTGVPSRFSGSGSGTDFTFTISSLQPEDVATYYCQQFDDLPITFGQGTRLQIKR | 2.02 nM | binds | binds | 0.00403 nM
6 | DG_3CH989-SG182/3CL-SK1 (antibody, V domains shown) VH: QVQLVQSGAEVKKPGASVKVSCKASGYTFTSNYIHWVRQAPGQGLEWMGVINPRGGSRRSAQKFQGRVTMTRDTSTSTVYMELSSLRSEDTAVYYCARGGRALFYDSYTTPFDGGSWWFDPWGQGSLVTVSS VL: DIQLTQSPSSLSASVGDRVTFTCQASQDIRKYLNWYQQKPGKAPKLLIYDASNLKTGVPSRFSGSGSGTDFTFTISSLQPEDVATYYCQQFDDLPITFGQGTRLQIKR | 1.84 nM | binds | binds | 0.000448 nM
7 | DG_3CH1000-SG182/3CL633-SK1 (antibody, V domains shown) VH: QVQLVQSGPDVEKPGASVKVSCKASGYTFTSYYMHWVRQAPGQGLEWMGVINPRGGSRRSAQKFQGRITMTRDTSTSTVYMELSSLRSEDTAVYYCARGGRALFYDSYTTPFDGGSWWFDPWGQGSLVTVSS VL: DIQLTQSPSSLSASVGDRVTITCQASQDIRKYLNWYQQKPGKAPKLLIYDASNLKTGVPSRFSGSGSGTDFTLTISSLQPEDVATYYCQQFDDLPITFGQGTRLQIKR | 1.77 nM | binds | binds | 0.00425 nM
8 | DG_3CH1000-SG182/3CL666-SK1 (antibody, V domains shown) VH: QVQLVQSGPDVEKPGASVKVSCKASGYTFTSYYMHWVRQAPGQGLEWMGVINPRGGSRRSAQKFQGRITMTRDTSTSTVYMELSSLRSEDTAVYYCARGGRALFYDSYTTPFDGGSWWFDPWGQGSLVTVSS VL: DIQLTQSPSSLSASVGDRVTITCQASQEIRKYLNWYQQKPGKAPKLLIYDASNLKTGVPSRFSGSGSGTDFTLTISSLQPEDVATYYCQQFDDLPITFGQGTRLQIKR | 1.66 nM | binds | binds | 0.0025 nM
9 | DG_3CH989-SG182/3CL666-SK1 (antibody, V domains shown) VH: QVQLVQSGAEVKKPGASVKVSCKASGYTFTSNYIHWVRQAPGQGLEWMGVINPRGGSRRSAQKFQGRVTMTRDTSTSTVYMELSSLRSEDTAVYYCARGGRALFYDSYTTPFDGGSWWFDPWGQGSLVTVSS VL: DIQLTQSPSSLSASVGDRVTITCQASQEIRKYLNWYQQKPGKAPKLLIYDASNLKTGVPSRFSGSGSGTDFTLTISSLQPEDVATYYCQQFDDLPITFGQGTRLQIKR | 1.5 nM | binds | binds | 0.00196 nM
10 | DG_3CH1000-SG182/3CL668-SK1 (antibody, V domains shown) VH: QVQLVQSGPDVEKPGASVKVSCKASGYTFTSYYMHWVRQAPGQGLEWMGVINPRGGSRRSAQKFQGRITMTRDTSTSTVYMELSSLRSEDTAVYYCARGGRALFYDSYTTPFDGGSWWFDPWGQGSLVTVSS VL: DIQLTQSPSSLSASVGDRVTITCQASQDIRKYLNWYQQKPGKAPKLLIYDASNLKTGVPSRFSGSGSGTDFTLTISSLQPEDVATYYCQQFEDLPITFGQGTRLQIKR | 1.68 nM | binds | binds | 0.0008 nM
11 | DG_3CH992-SG182/3CL012-SK1 (antibody, V domains shown) VH: QVQLVQSGAEVKKPGASVKVSCKASGYTFTSYYIHWVRQAPGQGLEWMGVINPRGGSRRSAQKFQGRVTMTRDTSTSTVYMELSSLRSEDTAVYYCARGGRALFYDSYTTPFDGGSWWFDPWGQGSLVTVSS VL: DIQLTQSPSSLSASVGDRVTFTCQASQDIRKYLNWYQQKPGKAPKLLIYDASNLKTGVPSRFSGSGSGTDFTFTISSLQPEDVATYYCQQFEDLPITFGQGTRLQIKR | 1.72 nM | binds | binds | 0.00107 nM
12 | DG_3CH992-SG182/3CL666-SK1 (antibody, V domains shown) VH: QVQLVQSGAEVKKPGASVKVSCKASGYTFTSYYIHWVRQAPGQGLEWMGVINPRGGSRRSAQKFQGRVTMTRDTSTSTVYMELSSLRSEDTAVYYCARGGRALFYDSYTTPFDGGSWWFDPWGQGSLVTVSS VL: DIQLTQSPSSLSASVGDRVTITCQASQEIRKYLNWYQQKPGKAPKLLIYDASNLKTGVPSRFSGSGSGTDFTLTISSLQPEDVATYYCQQFDDLPITFGQGTRLQIKR | 1.39 nM | binds | binds | 0.000802 nM
